Laboratory results from patent US20170204182A1 (published 2017).

Legend:
[1] = target: T1, phosphorylated human tau protein (human, UniProt P10636-8 1-441, limits assumed, S422 phosphorylation); experiment: SPR BIAcore
T1 construct: also called pTau
T1 sequence (P10636 other isoform, or with tags, fused parts or gaps limits assumed): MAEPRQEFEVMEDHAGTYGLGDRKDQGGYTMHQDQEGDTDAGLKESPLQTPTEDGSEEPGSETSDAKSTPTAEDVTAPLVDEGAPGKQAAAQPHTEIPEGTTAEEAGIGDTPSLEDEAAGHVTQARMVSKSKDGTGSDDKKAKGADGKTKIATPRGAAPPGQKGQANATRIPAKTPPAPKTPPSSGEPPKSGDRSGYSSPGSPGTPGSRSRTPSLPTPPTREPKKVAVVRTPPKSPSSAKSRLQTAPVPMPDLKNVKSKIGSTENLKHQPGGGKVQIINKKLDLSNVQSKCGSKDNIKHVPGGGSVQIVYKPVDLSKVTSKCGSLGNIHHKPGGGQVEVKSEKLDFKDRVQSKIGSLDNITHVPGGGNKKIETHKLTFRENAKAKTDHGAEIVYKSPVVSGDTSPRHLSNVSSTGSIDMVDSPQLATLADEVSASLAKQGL

[2] = target: T2, phosphorylated human tau protein (human, UniProt P10636-8 1-441, limits assumed, S422 phosphorylation); experiment: SPR (BIAcore), captured antibody
T2 construct: also called pTau
T2 sequence (P10636 other isoform, or with tags, fused parts or gaps limits assumed): as above

Row | BL [1] | half-life (t1/2) [2] | Binder
1 | 197 RU |  | Rb86 HC 001_IGHV3_23_04 / LC Rb86 (antibody, V domains shown) VH: QQLVESGGGLVQPGGSLRLSCAASGFSLSSNAINWVRQAPGKGLEWVGYIAVSGNTYYASWAKGRFTISRDNSKNTLYLQMNSLRAEDTAVYYCGKSNIWGQGTLVTVSS VL: AQVLTQTTSPVSAAVGSTVTISCQSSQSVRTNKLAWFQQKPGQPPKRLIYSASTLDFGVPSRFSASGSGTQFTLTISDVQCDDAATYYCLGYFDCSIADCVAFGGGTEVVVK
2 | 102 RU |  | Rb86 HC 001_IGHV3_23_04 / LC 003--IMGT_hVK_4_1 (antibody, V domains shown) VH: QQLVESGGGLVQPGGSLRLSCAASGFSLSSNAINWVRQAPGKGLEWVGYIAVSGNTYYASWAKGRFTISRDNSKNTLYLQMNSLRAEDTAVYYCGKSNIWGQGTLVTVSS VL: AQVMTQSPDSLAVSLGERATINCKSSQSVRTNKLAWFQQKPGQPPKRLIYSASTLDSGVPDRFSGSGSGTDFTLTISSLQAEDVAVYYCLGYFDCSIADCVAFGGGTEVVVK
3 | 225 RU |  | Rb86 HC 002--IMGT_hVH_3_23 / LC Rb86 (antibody, V domains shown) VH: QSVLESGGGLVQPGGSLRLSCAASGFSLSSNAINWVRQAPGKGLEWVGYIAVSGNTYYASWAKGRFTISRDNSKNTLYLQMNSLRAEDTAVYYCGKSNIWGPGTLVTVSS VL: AQVLTQTTSPVSAAVGSTVTISCQSSQSVRTNKLAWFQQKPGQPPKRLIYSASTLDFGVPSRFSASGSGTQFTLTISDVQCDDAATYYCLGYFDCSIADCVAFGGGTEVVVK
4 |  | 4.76 min | Rb86 variant: HC 001_IGHV3_23_04 / LC 003--IMGT_hVK_4_1 (antibody, V domains shown) VH: QQLVESGGGLVQPGGSLRLSCAASGFSLSSNAINWVRQAPGKGLEWVGYIAVSGNTYYASWAKGRFTISRDNSKNTLYLQMNSLRAEDTAVYYCGKSNIWGQGTLVTVSS VL: AQVMTQSPDSLAVSLGERATINCKSSQSVRTNKLAWFQQKPGQPPKRLIYSASTLDSGVPDRFSGSGSGTDFTLTISSLQAEDVAVYYCLGYFDCSIADCVAFGGGTEVVVK
5 | 97.9 RU |  | Rb86 HC 001_IGHV3_23_04 / LC 006--IMGT_hVK_7_3 (antibody, V domains shown) VH: QQLVESGGGLVQPGGSLRLSCAASGFSLSSNAINWVRQAPGKGLEWVGYIAVSGNTYYASWAKGRFTISRDNSKNTLYLQMNSLRAEDTAVYYCGKSNIWGQGTLVTVSS VL: DIVLTQSPASLAVSPGQRATITCQSSQSVRTNKLAWFQQKPGQPPKRLIYSASTLDFGVPARFSGSGSGTDFTLTINPVEANDTANYYCLGYFDCSIADCVAFGGGTKVEIK
6 | -4.7 RU |  | Rb86 HC 001_IGHV3_23_04 / LC 010--IMGT_hVK_1_17 (antibody, V domains shown) VH: QQLVESGGGLVQPGGSLRLSCAASGFSLSSNAINWVRQAPGKGLEWVGYIAVSGNTYYASWAKGRFTISRDNSKNTLYLQMNSLRAEDTAVYYCGKSNIWGQGTLVTVSS VL: DIQMTQSPSSLSASVGDRVTITCRASQGVRTNKLGWYQQKPGKAPKRLIYSASTLQSGVPSRFSGSGSGTEFTLTISSLQPEDFATYYCLGYFDCSIADCVAFGGGTKVEIK
7 |  | 3.44 min | Rb86 variant: HC 001_IGHV3_23_04 / LC 004--IMGT_hVK_4_1 (antibody, V domains shown) VH: QQLVESGGGLVQPGGSLRLSCAASGFSLSSNAINWVRQAPGKGLEWVGYIAVSGNTYYASWAKGRFTISRDNSKNTLYLQMNSLRAEDTAVYYCGKSNIWGQGTLVTVSS VL: DIVMTQSPDSLAVSLGERATINCKSSQSVRTNKLAWFQQKPGQPPKRLIYSASTLDSGVPDRFSGSGSGTDFTLTISSLQAEDVAVYYCLGYFDCSIADCVAFGGGTKVEIK
8 |  | 1.71 min | Rb86 variant: HC 001_IGHV3_23_04 / LC 005--IMGT_hVK_4_1 (antibody, V domains shown) VH: QQLVESGGGLVQPGGSLRLSCAASGFSLSSNAINWVRQAPGKGLEWVGYIAVSGNTYYASWAKGRFTISRDNSKNTLYLQMNSLRAEDTAVYYCGKSNIWGQGTLVTVSS VL: DIVMTQSPDSLAVSLGERATINCKSSQSVRTNKLAWFQQKPGQPPKRLIYSASTLDSGVPDRFSGSGSGTDFTLTISSLQAEDVAVYYCLGYFDSSIADSVAFGGGTKVEIK
9 | 96.2 RU |  | Rb86 HC 001_IGHV3_23_04 / LC 014--IMGT_hVK_1_17 (antibody, V domains shown) VH: QQLVESGGGLVQPGGSLRLSCAASGFSLSSNAINWVRQAPGKGLEWVGYIAVSGNTYYASWAKGRFTISRDNSKNTLYLQMNSLRAEDTAVYYCGKSNIWGQGTLVTVSS VL: DIQMTQSPSSLSASVGDRVTITCRASQGVRTNKLAWFQQKPGQPPKRLIYSASTLQSGVPSRFSGSGSGTEFTLTISSLQSEDFATYYCLGYFDCSIADCVAFGGGTKVEIK
10 | 92.2 RU |  | Rb86 HC 001_IGHV3_23_04 / LC 012--IMGT_hVK_1_17 (antibody, V domains shown) VH: QQLVESGGGLVQPGGSLRLSCAASGFSLSSNAINWVRQAPGKGLEWVGYIAVSGNTYYASWAKGRFTISRDNSKNTLYLQMNSLRAEDTAVYYCGKSNIWGQGTLVTVSS VL: DIQMTQSPSSLSASVGDRVTITCRASQGVRTNKLAWFQQKPGQPPKRLIYSASTLQSGVPSRFSGSGSGTEFTLTISSLQPEDFATYYCLGYFDCSIADCVAFGGGTKVEIK
11 | 62.9 RU |  | Rb86 HC 001_IGHV3_23_04 / LC 005--IMGT_hVK_4_1 (antibody, V domains shown) VH: QQLVESGGGLVQPGGSLRLSCAASGFSLSSNAINWVRQAPGKGLEWVGYIAVSGNTYYASWAKGRFTISRDNSKNTLYLQMNSLRAEDTAVYYCGKSNIWGQGTLVTVSS VL: DIVMTQSPDSLAVSLGERATINCKSSQSVRTNKLAWFQQKPGQPPKRLIYSASTLDSGVPDRFSGSGSGTDFTLTISSLQAEDVAVYYCLGYFDSSIADSVAFGGGTKVEIK
12 | 90.9 RU |  | Rb86 HC 001_IGHV3_23_04 / LC 013--IMGT_hVK_1_17 (antibody, V domains shown) VH: QQLVESGGGLVQPGGSLRLSCAASGFSLSSNAINWVRQAPGKGLEWVGYIAVSGNTYYASWAKGRFTISRDNSKNTLYLQMNSLRAEDTAVYYCGKSNIWGQGTLVTVSS VL: DIQMTQSTSSLSASVGDRVTITCRASQGVRTNKLAWFQQKPGQPPKRLIYSASTLQSGVPSRFSGSGSGTEFTLTISSLQPEDFATYYCLGYFDCSIADCVAFGGGTKVEIK
13 |  | 4.38 min | Rb86 variant: HC 001_IGHV3_23_04 / LC 006--IMGT_hVK_7_3 (antibody, V domains shown) VH: QQLVESGGGLVQPGGSLRLSCAASGFSLSSNAINWVRQAPGKGLEWVGYIAVSGNTYYASWAKGRFTISRDNSKNTLYLQMNSLRAEDTAVYYCGKSNIWGQGTLVTVSS VL: DIVLTQSPASLAVSPGQRATITCQSSQSVRTNKLAWFQQKPGQPPKRLIYSASTLDFGVPARFSGSGSGTDFTLTINPVEANDTANYYCLGYFDCSIADCVAFGGGTKVEIK
14 | 91.1 RU |  | Rb86 HC 001_IGHV3_23_04 / LC 017--IMGT_hVK_1_17 (antibody, V domains shown) VH: QQLVESGGGLVQPGGSLRLSCAASGFSLSSNAINWVRQAPGKGLEWVGYIAVSGNTYYASWAKGRFTISRDNSKNTLYLQMNSLRAEDTAVYYCGKSNIWGQGTLVTVSS VL: DIQMTQSPSSLSASVGDRVTITCRSSQSVRTNKLAWFQQKPGQPPKRLIYSASTLDFGVPSRFSGSGSGTEFTLTISSLQPEDFATYYCLGYFDCSIADCVAFGGGTKVEIK
15 | 63.6 RU |  | Rb86 HC 001_IGHV3_23_04 / LC 015--IMGT_hVK_1_17 (antibody, V domains shown) VH: QQLVESGGGLVQPGGSLRLSCAASGFSLSSNAINWVRQAPGKGLEWVGYIAVSGNTYYASWAKGRFTISRDNSKNTLYLQMNSLRAEDTAVYYCGKSNIWGQGTLVTVSS VL: DIQMTQSPSSLSASVGDRVTITCRASQGVRTNKLAWFQQKPGQPPKRLIYSASTLQSGVPSRFSGSGSGTEFTLTISSLQPEDFATYYCLGYFDSSIADSVAFGGGTKVEIK
16 | 108 RU |  | Rb86 HC 001_IGHV3_23_04 / LC 002--IMGT_hVK_4_1 (antibody, V domains shown) VH: QQLVESGGGLVQPGGSLRLSCAASGFSLSSNAINWVRQAPGKGLEWVGYIAVSGNTYYASWAKGRFTISRDNSKNTLYLQMNSLRAEDTAVYYCGKSNIWGQGTLVTVSS VL: AQVMTQSPDSLAVSLGERATINCKSSQSVRTNKLAWFQQKPGQPPKRLIYSASTLDSGVPDRFSGSGSGTDFTLTISSLQAEDVAVYYCLGYFDCSIADCVAFGGGTKVEIK
17 | 59.2 RU |  | Rb86 HC 001_IGHV3_23_04 / LC 004--IMGT_hVK_4_1 (antibody, V domains shown) VH: QQLVESGGGLVQPGGSLRLSCAASGFSLSSNAINWVRQAPGKGLEWVGYIAVSGNTYYASWAKGRFTISRDNSKNTLYLQMNSLRAEDTAVYYCGKSNIWGQGTLVTVSS VL: DIVMTQSPDSLAVSLGERATINCKSSQSVRTNKLAWFQQKPGQPPKRLIYSASTLDSGVPDRFSGSGSGTDFTLTISSLQAEDVAVYYCLGYFDCSIADCVAFGGGTKVEIK
18 |  | 5.36 min | Rb86 variant: HC 001_IGHV3_23_04 / LC 002--IMGT_hVK_4_1 (antibody, V domains shown) VH: QQLVESGGGLVQPGGSLRLSCAASGFSLSSNAINWVRQAPGKGLEWVGYIAVSGNTYYASWAKGRFTISRDNSKNTLYLQMNSLRAEDTAVYYCGKSNIWGQGTLVTVSS VL: AQVMTQSPDSLAVSLGERATINCKSSQSVRTNKLAWFQQKPGQPPKRLIYSASTLDSGVPDRFSGSGSGTDFTLTISSLQAEDVAVYYCLGYFDCSIADCVAFGGGTKVEIK
19 |  | 3.41 min | Rb86 variant: HC 001_IGHV3_23_04 / LC 001--IMGT_hVK_1_5 (antibody, V domains shown) VH: QQLVESGGGLVQPGGSLRLSCAASGFSLSSNAINWVRQAPGKGLEWVGYIAVSGNTYYASWAKGRFTISRDNSKNTLYLQMNSLRAEDTAVYYCGKSNIWGQGTLVTVSS VL: DIQMTQSTSTLSASVGDRVTITCQSSQSVRTNKLAWFQQKPGKAPKRLIYSASTLDFGVPSRFSGSGSGTEFTLTISSLQPDDFATYYCLGYFDCSIADCVAFGGGTKVEIK
20 |  | 12.7 min | Rb86 variant: HC 001_IGHV3_23_04 / LC Rb86 (antibody, V domains shown) VH: QQLVESGGGLVQPGGSLRLSCAASGFSLSSNAINWVRQAPGKGLEWVGYIAVSGNTYYASWAKGRFTISRDNSKNTLYLQMNSLRAEDTAVYYCGKSNIWGQGTLVTVSS VL: AQVLTQTTSPVSAAVGSTVTISCQSSQSVRTNKLAWFQQKPGQPPKRLIYSASTLDFGVPSRFSASGSGTQFTLTISDVQCDDAATYYCLGYFDCSIADCVAFGGGTEVVVK
21 | 101 RU |  | Rb86 HC 001_IGHV3_23_04 / LC 001--IMGT_hVK_1_5 (antibody, V domains shown) VH: QQLVESGGGLVQPGGSLRLSCAASGFSLSSNAINWVRQAPGKGLEWVGYIAVSGNTYYASWAKGRFTISRDNSKNTLYLQMNSLRAEDTAVYYCGKSNIWGQGTLVTVSS VL: DIQMTQSTSTLSASVGDRVTITCQSSQSVRTNKLAWFQQKPGKAPKRLIYSASTLDFGVPSRFSGSGSGTEFTLTISSLQPDDFATYYCLGYFDCSIADCVAFGGGTKVEIK
22 | 150 RU |  | Rb86 HC Rb86 / LC 014--IMGT_hVK_1_17 (antibody, V domains shown) VH: QSVEESGGRLVTPGTPLTLTCTVSGFSLSSNAINWVRQAPGKGLEWIGYIAVSGNTYYASWAKGRFTISKASTTVDLKMTSPTAEDTGTYFCGKSNIWGPGTLVTVSL VL: DIQMTQSPSSLSASVGDRVTITCRASQGVRTNKLAWFQQKPGQPPKRLIYSASTLQSGVPSRFSGSGSGTEFTLTISSLQSEDFATYYCLGYFDCSIADCVAFGGGTKVEIK
